# In doi:10.1101/2020.10.12.336495 (bioRxiv, 2020):
# Molecular target: the molecule itself
# Assay: cryo-EM structure
protein,measurement,value
"Saccharomyces cerevisiae vacuolar transient receptor potential yeast 1 (TRPY1) channel, full length (natural protein, UniProt Q12324 1-675, looked up) MVSANGDLHLPISNEQCMPENNGSLGFEAPTPRQILRVTLNLKYLIDKVVPIVYDPNDIVCDHSEILSPKVVKLAYEACGGNPKDKANKRKYQSVIIFSLLKVCEWYSILATMEVHNAKLYETRNLASQQLCKLLIEREETRDLQFLFMQLLLRRYVINENDEDQEPLNALELATDMHCTTVIGSSGFQRCLKWIWRGWIVQNGLDPTTFIKDDSLAEVSLISHFNPVRLKAPVYQNYLQMIFSFLFLGLYTLVVNGKDSERVQSFDLLESIFYVFNTGFILDELTKLYYIGYAHLSFWNLFNDTTYLIITFAMGFRAMSVTPLNAKYSSEDWDKISYRVLSCAAPFVWSRLLLYLESQRFIGIMLVILKHMMKESIVFFFLLFLIMIGFTQGFLGLDSADGKRDITGPILGNLTITVLGLGSFDVFEEFAPPYAAILYYGYYFIVSVILLNILIALYSTAYQKVIDNADDEYMALMSQKTLRYIRAPDEDVYVSPLNLIEVFMTPIFRILPPKRAKDLSYTVMTIVYSPFLLLISVKETREARRIKYNRMKRLNDDANEYDTPWDLTDGYLDDDDGLFSDNRNSGMRATQLKNSRSLKLQRTAEQEDVHFKVPKKWYKNVKKCSPSFEQYDNDDTEDDAGEDKDEVKELTKKVENLTAVITDLLEKLDIKDKKE",stoichiometry N,4
